Assay [1] deals with actin filaments (F-actin) of Acanthamoeba castellani cytoplasmic actin (Acanthamoeba castellani). Briefly: single-filament TIRF elongation rate against VASP concentration.
For assay [2] the target is unchanged. Briefly: single-molecule TIRF microscopy.

What is called Kd is the free concentration of one partner at which half of the binding sites on the other are occupied at equilibrium, for simple one-to-one binding. Read a low Kd as a tighter complex.

In turn, “human VASP^1-380aa, unlabeled wild type (untagged hVASP^1-380aa) (from UniProt P50552 1-380) (natural protein)” returned an equilibrium dissociation constant (Kd) in assay [1] of 9.2 nM.

In assay [2], “Cy3-KCK-hVASP^1-380aa (C7S, C64S, C334A) (from UniProt P50552 1-380) (natural protein)” came in with a dwell time at the growing barbed end with 1 µM actin of 1.45 s, a dwell time τ1 (single exponential fit without the static molecules) of 0.44 s, a dwell time τ1 on filament regions with p(ADP-Pi) < 0.5 of 1 s and a dwell time τ1 on filament regions with p(ADP-Pi) > 0.5 of 0.93 s. In assay [2], this substance came in with a dwell time τ1 on the sides of growing filaments of 0.22 s and a dwell time τ2 (static binding; double exponential fit of all interactions) of 4.99 s.

The record behind these values is article PMC3003327.
